Experimental data from patent US20140235820A1, “METHODS AND COMPOSITIONS FOR MODULATING THE Wnt PATHWAY” (Genentech, Inc., priority 2010, published 2014).

Tests used:
LRP6 E3E4 = target: T1, LRP6 E3E4 (Homo sapiens, UniProt O75581); assay: Biolayer interferometry binding to LRP6 E3E4
T1 construct: construct E3E4 amino acids E631-Q1253 of LPR6; made in house; host or cells: Tni insect cells (baculovirus, secreted)
T1 sequence (O75581 631-1253): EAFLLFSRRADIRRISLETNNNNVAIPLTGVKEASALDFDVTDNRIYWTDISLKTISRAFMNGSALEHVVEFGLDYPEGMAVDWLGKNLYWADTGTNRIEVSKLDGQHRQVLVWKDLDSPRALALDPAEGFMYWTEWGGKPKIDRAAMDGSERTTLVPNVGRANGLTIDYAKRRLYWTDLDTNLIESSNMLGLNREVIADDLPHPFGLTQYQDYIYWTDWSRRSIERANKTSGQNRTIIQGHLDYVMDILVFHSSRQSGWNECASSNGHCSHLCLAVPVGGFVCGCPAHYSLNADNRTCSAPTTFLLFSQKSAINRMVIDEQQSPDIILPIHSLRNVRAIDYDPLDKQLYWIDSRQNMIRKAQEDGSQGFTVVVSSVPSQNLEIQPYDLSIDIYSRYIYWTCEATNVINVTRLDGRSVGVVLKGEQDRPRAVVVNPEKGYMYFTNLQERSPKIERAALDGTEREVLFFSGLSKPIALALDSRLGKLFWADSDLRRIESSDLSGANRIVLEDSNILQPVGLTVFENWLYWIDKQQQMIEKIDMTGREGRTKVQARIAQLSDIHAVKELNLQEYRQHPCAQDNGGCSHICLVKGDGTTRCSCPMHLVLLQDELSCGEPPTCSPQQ
Protocol: (§1) Binding kinetics were measured by biolayer interferometry using an Octet Red instrument (ForteBio) as previously described (11). Streptavidin (SA) biosensors were loaded with biotinylated hLRP6 in 50 mMTris, pH 8, 300 mM NaCl, 5% (v/v) glycerol, and 0.05% (w/v) Triton X-100. The loaded biosensors were washed in the same buffer before carrying out association and dissociation measurements for the indicated times. The Kd of each interaction was determined using steady state-analysis through the Octet Red software v6.3. Each reported value represents an average of three or more experiments at different concentrations, with a fitted experimental curve for which the square of the correlation coefficient (R^2) is above 0.96.
(§2) The interaction of the different Dkks and sclerostin with various domains of LRP6 was measured using a biolayer interferometry assay (11). Purified receptors contained individual β-propeller-EGF-like units (E1, E2, or E4), two β-propellers (E1E2 or E3E4), or four β-propellers (E1E4))—as follows:
(§3) Human LRP6: construct E1E4-amino acids A20-Q1253 of LPR6; construct E1E2-amino acids A20-E631 of LPR6; construct E3E4 amino acids E631-Q1253 of LPR6; construct E1-amino acids A20-D325 of LPR6; construct E2-amino acids […]-E631 of LPR6; construct E4-T933-Q1253. The individual LRP6 β-propeller E3 could not be expressed.

[1] = target: T2, human LRP6 construct E1E2 (amino acids A20-E631) (human, UniProt O75581 20-631, biotinylated for biolayer interferometry); assay: BLI affinity
T2 construct: range 20-631; also called LRP6 E1E2
T2 sequence (looked up): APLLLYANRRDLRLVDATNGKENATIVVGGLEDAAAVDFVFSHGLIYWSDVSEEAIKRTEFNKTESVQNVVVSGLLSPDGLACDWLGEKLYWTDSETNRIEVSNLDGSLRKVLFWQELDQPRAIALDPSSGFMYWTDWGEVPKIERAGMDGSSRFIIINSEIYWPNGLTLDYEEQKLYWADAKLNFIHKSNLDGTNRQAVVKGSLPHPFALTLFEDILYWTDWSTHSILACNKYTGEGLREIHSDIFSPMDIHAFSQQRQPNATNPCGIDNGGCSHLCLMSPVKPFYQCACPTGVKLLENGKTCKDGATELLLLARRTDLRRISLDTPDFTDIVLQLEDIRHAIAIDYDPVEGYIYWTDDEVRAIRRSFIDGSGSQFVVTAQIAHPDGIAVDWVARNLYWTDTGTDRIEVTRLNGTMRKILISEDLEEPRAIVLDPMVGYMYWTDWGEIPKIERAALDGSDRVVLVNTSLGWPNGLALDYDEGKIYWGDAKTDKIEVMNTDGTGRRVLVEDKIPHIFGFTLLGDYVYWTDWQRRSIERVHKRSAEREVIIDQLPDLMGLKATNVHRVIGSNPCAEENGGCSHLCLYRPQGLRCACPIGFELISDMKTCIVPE
Protocol: as §1, with “(R²)” for “(R^2)”

LRP6 E1E2 = target: T3, LRP6 E1E2 (Homo sapiens, UniProt O75581); assay: Biolayer interferometry binding to LRP6 E1E2
T3 construct: construct E1E2-amino acids A20-E631 of LPR6; made in house; host or cells: Tni insect cells (baculovirus, secreted)
T3 sequence (O75581 20-631): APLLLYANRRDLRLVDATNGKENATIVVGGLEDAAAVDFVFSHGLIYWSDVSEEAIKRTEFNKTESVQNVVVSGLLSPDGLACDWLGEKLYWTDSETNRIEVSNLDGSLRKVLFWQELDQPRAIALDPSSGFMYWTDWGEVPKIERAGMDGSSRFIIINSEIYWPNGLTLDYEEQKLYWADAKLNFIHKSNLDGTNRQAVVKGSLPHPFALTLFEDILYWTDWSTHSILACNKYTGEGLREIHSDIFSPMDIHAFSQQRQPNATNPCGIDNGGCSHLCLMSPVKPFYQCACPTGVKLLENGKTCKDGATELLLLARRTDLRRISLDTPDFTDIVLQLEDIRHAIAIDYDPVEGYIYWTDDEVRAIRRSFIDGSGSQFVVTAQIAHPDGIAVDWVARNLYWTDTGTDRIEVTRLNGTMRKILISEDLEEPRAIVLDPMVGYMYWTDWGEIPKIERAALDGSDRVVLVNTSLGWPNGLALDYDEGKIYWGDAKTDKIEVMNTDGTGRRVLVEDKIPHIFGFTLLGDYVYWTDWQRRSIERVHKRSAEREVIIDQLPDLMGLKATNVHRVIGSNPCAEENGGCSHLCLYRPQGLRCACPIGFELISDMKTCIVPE
Protocol: as §1, §2, §3

LRP6 E1E4 = target: T4, LRP6 E1E4 (Homo sapiens, UniProt O75581); assay: Biolayer interferometry binding to LRP6 E1E4
T4 construct: construct E1E4-amino acids A20-Q1253 of LPR6; made in house; host or cells: Tni insect cells (baculovirus, secreted)
T4 sequence (O75581 20-1253): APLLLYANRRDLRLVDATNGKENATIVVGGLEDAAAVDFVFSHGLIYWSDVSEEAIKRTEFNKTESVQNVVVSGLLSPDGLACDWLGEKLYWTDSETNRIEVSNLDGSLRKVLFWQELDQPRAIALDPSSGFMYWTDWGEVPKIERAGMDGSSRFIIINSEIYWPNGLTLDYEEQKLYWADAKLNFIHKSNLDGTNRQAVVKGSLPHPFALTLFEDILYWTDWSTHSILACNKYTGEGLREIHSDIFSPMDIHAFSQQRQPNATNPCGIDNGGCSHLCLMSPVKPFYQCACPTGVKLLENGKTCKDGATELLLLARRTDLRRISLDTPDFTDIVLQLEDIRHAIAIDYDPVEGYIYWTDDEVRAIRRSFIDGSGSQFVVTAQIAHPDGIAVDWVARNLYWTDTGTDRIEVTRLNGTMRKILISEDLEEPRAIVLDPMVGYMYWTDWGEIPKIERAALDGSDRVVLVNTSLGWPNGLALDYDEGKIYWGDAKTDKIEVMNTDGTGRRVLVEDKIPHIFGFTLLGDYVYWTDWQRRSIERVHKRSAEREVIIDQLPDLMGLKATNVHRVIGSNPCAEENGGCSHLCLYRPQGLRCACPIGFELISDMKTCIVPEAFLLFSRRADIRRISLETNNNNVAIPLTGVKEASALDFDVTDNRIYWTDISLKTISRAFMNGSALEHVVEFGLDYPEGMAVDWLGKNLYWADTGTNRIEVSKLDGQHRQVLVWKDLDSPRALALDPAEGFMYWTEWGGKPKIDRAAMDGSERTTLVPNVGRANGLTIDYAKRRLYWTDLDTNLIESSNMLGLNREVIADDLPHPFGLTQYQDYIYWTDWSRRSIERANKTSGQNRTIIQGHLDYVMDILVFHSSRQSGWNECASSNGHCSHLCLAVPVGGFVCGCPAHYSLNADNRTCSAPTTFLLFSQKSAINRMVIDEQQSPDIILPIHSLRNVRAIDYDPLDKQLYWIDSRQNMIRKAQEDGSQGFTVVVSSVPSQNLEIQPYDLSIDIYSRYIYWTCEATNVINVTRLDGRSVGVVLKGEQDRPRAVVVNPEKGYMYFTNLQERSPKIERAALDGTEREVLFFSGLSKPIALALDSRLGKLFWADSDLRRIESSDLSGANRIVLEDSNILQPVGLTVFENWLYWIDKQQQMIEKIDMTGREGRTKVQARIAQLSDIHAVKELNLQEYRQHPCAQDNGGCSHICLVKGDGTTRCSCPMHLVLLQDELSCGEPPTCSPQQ
Protocol: as §1, §2, §3

Wnt1-dependent signaling = assay: Wnt-dependent TOPbrite luciferase reporter assay, cells transfected with Wnt1; format: cell-based; conditions: cells stably transfected with reporter, transiently with Wnt1
Protocol: FIG. 12. Induction of a Wnt/β-catenin reporter in the presence or absence of wild-type and mutant inhibitors. Cells were transfected by Wnt1 (binds to LRP6 E1E2). Dkk1 and sclerostin variants, or the control inhibitor Fz8 CRD, were used at the indicated doses.
Wnt signaling was assessed either in mouse fibroblast L-cells or in HEK293s cells. The luciferase reporter assay in 293 cells was performed as described (52). The mouse fibroblast L-cell imaging assay was conducted essentially as described(53). Cells were treated with Wnt3a, Fz8 CRD ((US Patent Publication 20080299136; (54), LRP6, or Dkk1, or combinations of these proteins, as indicated and processed after an additional 6 h at 37° C./5% CO2.
To test whether the observed effects on binding between purified proteins were relevant to cellular signaling, Dkk1 and sclerostin activities were tested further in a Wnt-dependent TOPbrite luciferase reporter assay (52). Cells stably transfected with reporter were transfected transiently with Wnt1. The Wnt-transfected cells were treated with purified Dkk1 or sclerostin variants, and the effect on reporter induction was measured (FIG. 12). […] This is consistent with earlier observations that Wnt1 belongs to a class of Wnts signaling through the E1E2 portion of to LRP5/6 (11, 52). The Dkk1 and sclerostin mutants show activities consistent with their binding to LRP6 (FIG. 12). Sclerostin Ile119Glu (“NXI” motif) is impaired relative to wild-type in its ability to inhibit Wnt1-driven signaling, as is Dkk1 Ile42Glu.

B1: Dkk1 Asn40Ala (ligand, human, UniProt O94907 32-266, looked up)
chain: TLNSVLNSAAIKNLPPPLGGAAGHPGSAVSAAPGILYPGGNKYQTIDNYQPYPCAEDEECGTDEYCASPTRGGDAGVQICLACRKRRKRCMRHAMCCPGNYCKNGICVSSDQNHFRGEIEETITESFGNDHSTLDGYSRRTTLSSKMYHTKGQEGSVCLRSSDCASGLCCARHFWSKICKPVLKEGQVCTKHRRKGSHGLEIFQRCYCGEGLSCRIQKDHHQASNSSRLHTCQRH
notes: also called Dkk1 N40A
binding to LRP6 E3E4 (in words) (LRP6 E3E4): not to E3E4 | fold loss in affinity against wild-type Dkk1 [1]: 75 fold | binding to LRP6 E1E2 (in words) (LRP6 E1E2): affect binding | binding to LRP6 E1E4 (in words) (LRP6 E1E4): retain binding

B2: Sclerostin Asn117Ala (ligand, UniProt Q9BQB4 24-213, looked up)
chain: QGWQAFKNDATEIIPELGEYPEPPPELENNKTMNRAENGGRPPHHPFETKDVSEYSCRELHFTRYVTDGPCRSAKPVTELVCSGQCGPARLLPAAIGRGKWWRPSGPDFRCIPDRYRAQRVQLLCPGGEAPRARKVRLVASCKCKRLTRFHNQSELKDFGTEAARPQKGRKPRPRARSAKANQAELENAY
notes: also called sclerostin N117A
fold loss in affinity against wild-type sclerostin [1]: 14 fold

B3: Sclerostin Ile119Glu (ligand, UniProt Q9BQB4 24-213, looked up)
chain: QGWQAFKNDATEIIPELGEYPEPPPELENNKTMNRAENGGRPPHHPFETKDVSEYSCRELHFTRYVTDGPCRSAKPVTELVCSGQCGPARLLPNAEGRGKWWRPSGPDFRCIPDRYRAQRVQLLCPGGEAPRARKVRLVASCKCKRLTRFHNQSELKDFGTEAARPQKGRKPRPRARSAKANQAELENAY
notes: also called sclerostin I119E
fold loss in affinity against wild-type sclerostin [1]: 19 fold | inhibition of Wnt1-dependent signaling (reporter induction) (Wnt1-dependent signaling): impaired

B4: Dkk4: Dickkopf 4, carrier-free protein from R&D Systems (protein, UniProt Q9UBT3 19-224, looked up)
Dickkopf-related protein 4: LVLDFNNIRSSADLHGARKGSQCLSDTDCNTRKFCLQPRDEKPFCATCRGLRRRCQRDAMCCPGTLCVNDVCTTMEDATPILERQLDEQDGTHAEGTTGHPVQENQPKRKPSIKKSQGRKGQEGESCLRTFDCGPGLCCARHFWTKICKPVLLEGQVCSRRGHKDTAQAPEIFQRCDCGPGLLCRSQLTSNRQHARLRVCQKIEKL
binding to LRP6 E3E4 (in words) (LRP6 E3E4): very weak binding | binding to LRP6 E1E2 (in words) (LRP6 E1E2): did not bind | binding to LRP6 E1E4 (in words) (LRP6 E1E4): very weak binding
